The data set concerns the target T1, SPRTN-EQ (catalytically inactive) (UniProt Q9H040 1-489, E112Q).
T1 sequence: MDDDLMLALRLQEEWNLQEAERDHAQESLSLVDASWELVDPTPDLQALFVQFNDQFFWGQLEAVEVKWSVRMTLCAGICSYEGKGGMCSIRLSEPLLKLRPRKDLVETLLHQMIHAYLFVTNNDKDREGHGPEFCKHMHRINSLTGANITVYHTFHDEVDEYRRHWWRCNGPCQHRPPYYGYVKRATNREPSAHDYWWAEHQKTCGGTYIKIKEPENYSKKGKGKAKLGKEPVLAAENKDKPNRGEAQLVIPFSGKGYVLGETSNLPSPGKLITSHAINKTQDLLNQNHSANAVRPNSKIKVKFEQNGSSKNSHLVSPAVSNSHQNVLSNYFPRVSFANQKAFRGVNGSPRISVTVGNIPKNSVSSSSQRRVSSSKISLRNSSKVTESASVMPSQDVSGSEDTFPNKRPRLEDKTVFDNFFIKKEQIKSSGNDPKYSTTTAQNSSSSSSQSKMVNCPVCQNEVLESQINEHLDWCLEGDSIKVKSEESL
As to the kind of experiment: EMSA. Background: A gel shift assay detects complexes by their altered migration in electrophoresis.

B1: Junction-DPC (substrate e) (mixed)
DNA 1: CCCAAAAAAAAAAATAAAAAAAAAAAACCC
DNA 2: GGGTTTTTTTTTTTT
modifications: dT15 of strand 1 covalently conjugated to protein G; strand 1 3'-phosphate
Consider B1, for which the binding result is given as “binds”.

B2: dsDPC (substrate f) (dsDNA)
DNA 1: B1 DNA 1
DNA 2: GGGTTTTTTTTTTTTATTTTTTTTTTTGGG
modifications: dT15 of strand 1 covalently conjugated to protein G; strand 1 3'-phosphate
Regarding B2, the binding result was “binds”.

The record behind these values is publication PMC8219891.
